These results are taken from article PMC314469, “Protein Interaction Networks by Proteome Peptide Scanning” (PLoS Biology, 2004).

For this assay, the target named is T1, Abp1 SH3 (ABP1_YEAST), P15891.
T1 chain: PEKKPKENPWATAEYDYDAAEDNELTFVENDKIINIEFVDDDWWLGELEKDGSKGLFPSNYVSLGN
As to the kind of experiment: SPOT array.
With TVQRYYKTTVPTKP [YKR084C 138-151], the normalised SPOT signal, Boehringer light units (BLU); mean over the file's lines of this peptide came to 352.

TYFSVEAPPSIRP [YEL044W 99-111] showed a normalised SPOT signal, Boehringer light units (BLU); mean over the file's lines of this peptide of 76.1.

VDQLDTASIHPSRP [YGL115W 118-131]: the normalised SPOT signal, Boehringer light units (BLU); mean over the file's lines of this peptide is 110.

Molecule VDRDSAIFYLPQRP [YKL188C 543-556] showed a normalised SPOT signal, Boehringer light units (BLU); mean over the file's lines of this peptide of 66.1.

In turn, TVPTNHVPNYIKP [YGR165W 78-90] came in with a normalised SPOT signal, Boehringer light units (BLU); mean over the file's lines of this peptide of 3.6.

Take VDDYNASFELPLKP [YGL134W 27-40]: the normalised SPOT signal, Boehringer light units (BLU); mean over the file's lines of this peptide was determined as 95.4.

VDGGMAFNPDPKKP [YER095W 331-344] gave a normalised SPOT signal, Boehringer light units (BLU); mean over the file's lines of this peptide of 74.7.

VSGTRQSPIPKKP [YML007W 309-321]: the normalised SPOT signal, Boehringer light units (BLU); mean over the file's lines of this peptide was 935.

The molecule VSDKTKKKTVPVKP [YBL017C 681-694] displayed a normalised SPOT signal, Boehringer light units (BLU); mean over the file's lines of this peptide of 171.

TTKKQENPQWLRP [YBL014C 33-45]: the normalised SPOT signal, Boehringer light units (BLU); mean over the file's lines of this peptide came out at 126.

VEQSATIPESIKP [YGL238W 669-681] showed a normalised SPOT signal, Boehringer light units (BLU); mean over the file's lines of this peptide of 27.7.

In turn, VFKDPEGDYKPIKP [YLR084C 1187-1200] registered a normalised SPOT signal, Boehringer light units (BLU); mean over the file's lines of this peptide of -0.

Regarding VDGLSNPPTLLRP [YGL169W 237-249], the normalised SPOT signal, Boehringer light units (BLU); mean over the file's lines of this peptide is 21.8.

VEEYWGKKFEPERP [YJR137C 1184-1197]: the normalised SPOT signal, Boehringer light units (BLU); mean over the file's lines of this peptide came out at 89.3.

TVADTLQPGLPHKP [YKL148C 463-476] displayed a normalised SPOT signal, Boehringer light units (BLU); mean over the file's lines of this peptide of 169.

The molecule VEVDMSLPENQKP [YBR111C 165-177] displayed a normalised SPOT signal, Boehringer light units (BLU); mean over the file's lines of this peptide of 20.2.

In turn, VAIIYYKPYLDRP [YGL139W 508-520] returned a normalised SPOT signal, Boehringer light units (BLU); mean over the file's lines of this peptide of 76.3.

VEYDYVDPRQLKP [YGL236C 383-395] gave a normalised SPOT signal, Boehringer light units (BLU); mean over the file's lines of this peptide of 51.9.

Regarding VFSGVTNQPSPIRP [YER129W 661-674], the normalised SPOT signal, Boehringer light units (BLU); mean over the file's lines of this peptide turned out to be 98.3.

For TTPTIETPISSKP [YJL005W 370-382], the normalised SPOT signal, Boehringer light units (BLU); mean over the file's lines of this peptide was 38.3.

VERNFTDPGDGKP [YMR238W 135-147] came in with a normalised SPOT signal, Boehringer light units (BLU); mean over the file's lines of this peptide of 73.

Take VEFKKDLEEGPTKP [YML074C 275-288]: the normalised SPOT signal, Boehringer light units (BLU); mean over the file's lines of this peptide came out at 82.

As to TVIYANAPIEEKP [YLR414C 249-261], the normalised SPOT signal, Boehringer light units (BLU); mean over the file's lines of this peptide stood at 191.

Molecule VDRGVGEWYKPDRP [YNL108C 86-99] returned a normalised SPOT signal, Boehringer light units (BLU); mean over the file's lines of this peptide of 172.

TTTYKSRPDRPKP [YBR289W 757-769]: the normalised SPOT signal, Boehringer light units (BLU); mean over the file's lines of this peptide stood at 1770.

VADVQWSPHPAKP [YDR128W 70-82] returned a normalised SPOT signal, Boehringer light units (BLU); mean over the file's lines of this peptide of 66.3.

Molecule VFSKMAKKLLPYKP [YBR270C 205-218] gave a normalised SPOT signal, Boehringer light units (BLU); mean over the file's lines of this peptide of 896.

Consider VDTFEDEPDKLKP [YGR210C 280-292], for which the normalised SPOT signal, Boehringer light units (BLU); mean over the file's lines of this peptide came to 93.9.

The molecule VAIIRYKPYLDRP [YPL221W 502-514] gave a normalised SPOT signal, Boehringer light units (BLU); mean over the file's lines of this peptide of 156.

TVKKPARPWRAKP [YKL220C 449-461] registered a normalised SPOT signal, Boehringer light units (BLU); mean over the file's lines of this peptide of 356.

Regarding TTKGENIKITPQKP [YJR122W 470-483], the normalised SPOT signal, Boehringer light units (BLU); mean over the file's lines of this peptide amounted to 166.

VENLGTNVTPPLRP [YPL242C 22-35] showed a normalised SPOT signal, Boehringer light units (BLU); mean over the file's lines of this peptide of 64.4.

TYVHAWDMRSPHRP [YDR128W 137-150] displayed a normalised SPOT signal, Boehringer light units (BLU); mean over the file's lines of this peptide of 489.

In turn, TVEYIRPETLPKKP [YNR051C 370-383] registered a normalised SPOT signal, Boehringer light units (BLU); mean over the file's lines of this peptide of 65.5.

For the molecule VEKINTFKTLPTKP [YDL202W 178-191], the normalised SPOT signal, Boehringer light units (BLU); mean over the file's lines of this peptide turned out to be 385.

TTVPQQLPLEPLKP [YOR329C 400-413] showed a normalised SPOT signal, Boehringer light units (BLU); mean over the file's lines of this peptide of 104.

The molecule VAFILLTPIHSRP [YGL160W 214-226] came in with a normalised SPOT signal, Boehringer light units (BLU); mean over the file's lines of this peptide of 48.3.

TYQTLHSPKKFKP [YOR022C 44-56] came in with a normalised SPOT signal, Boehringer light units (BLU); mean over the file's lines of this peptide of 176.

VELVTVRPLDEKP [YJL105W 434-446] returned a normalised SPOT signal, Boehringer light units (BLU); mean over the file's lines of this peptide of 20.9.
